# Laboratory results reported in the Human Domainome abundance scans (Beltran et al. 2025).
# ± gives the uncertainty stated by the source.
# B1: Nanos homolog 2, residues 63 to 115; numbered along this chain, P60321 (parent)
# chain: CNFCKHNGESRHVYSSHQLKTPDGVVVCPILRHYVCPVCGATGDQAHTLKYCP
# Variants of: B1
# Assay: abundance fitness (aPCA) (normalised: wild type 0, dead -1); higher = more abundant; growth selection in yeast, the domain comes from the species named
# Details: Homo sapiens
row,Variant,abundance fitness
1,R11T,0.08 ± 0.13
2,I30T,0.111 ± 0.098
3,I30E,-0.108 ± 0.13
4,I30L,-0.033 ± 0.084
5,I30H,0.041 ± 0.2
6,I30C,-0.304 ± 0.15
7,I30S,0.082 ± 0.06
8,Q18M,0.091 ± 0.11
9,Q18K,0.133 ± 0.13
10,Q18L,-0.033 ± 0.072
11,Q18G,-0.089 ± 0.068
12,Q18I,-0.259 ± 0.15
13,Q18P,-0.183 ± 0.074
14,G24K,-0.353 ± 0.094
15,G24P,-0.478 ± 0.16
16,G24R,-0.413 ± 0.092
17,G24Q,-0.152 ± 0.064
18,G24D,-0.108 ± 0.065
19,G43C,-0.421 ± 0.13
20,G43P,-0.718 ± 0.079
21,G43L,-0.494 ± 0.08

row,Variant,abundance fitness
1,G43A,-0.138 ± 0.075
2,G43R,-0.135 ± 0.09
3,V13Q,-0.068 ± 0.1
4,V13I,-0.195 ± 0.15
5,V13K,0.113 ± 0.078
6,V13E,-0.058 ± 0.094
7,V13D,-0.013 ± 0.13
8,V13H,-0.087 ± 0.22
9,V13P,-0.477 ± 0.13
10,V13T,0.157 ± 0.085
11,V13C,0 ± 0.07
12,F3K,-1.44 ± 0.43
13,F3C,-0.632 ± 0.084
14,F3R,-0.848 ± 0.046
15,F3V,-1.01 ± 0.1
16,F3L,-0.576 ± 0.075
17,F3H,-0.502 ± 0.13
18,C36G,-0.826 ± 0.086
19,C36S,-0.699 ± 0.094
20,C36T,-0.804 ± 0.29
21,C36D,-0.444 ± 0.11

row,Variant,abundance fitness
1,C36L,-1 ± 0.11
2,C36P,-0.74 ± 0.24
3,C36N,-0.675 ± 0.11
4,H17E,-0.512 ± 0.14
5,H17S,-0.674 ± 0.1
6,H17I,-0.719 ± 0.25
7,H17R,-0.644 ± 0.082
8,H17F,-0.86 ± 0.37
9,H17A,-0.626 ± 0.13
10,S10I,-0.149 ± 0.069
11,S10P,0.02 ± 0.078
12,S10T,-0.248 ± 0.12
13,S10E,0.025 ± 0.1
14,S10V,-0.296 ± 0.083
15,S10H,0.022 ± 0.08
16,S10N,-0.198 ± 0.14
17,L19W,-0.089 ± 0.16
18,L19P,-0.508 ± 0.15
19,L19E,-0.013 ± 0.12
20,L19N,-0.277 ± 0.42
21,L19S,-0.186 ± 0.15

row,Variant,abundance fitness
1,C39V,-0.702 ± 0.21
2,C39G,-0.731 ± 0.13
3,C39Q,-0.428 ± 0.18
4,C39D,-0.837 ± 0.32
5,C39I,-0.739 ± 0.39
6,C39F,-0.497 ± 0.36
7,C39W,-0.708 ± 0.11
8,C39T,-0.58 ± 0.08
9,C39L,-0.607 ± 0.094
10,C39E,-0.484 ± 0.12
11,P37Y,-0.305 ± 0.41
12,P37F,-0.306 ± 0.12
13,P37W,-0.642 ± 0.15
14,P37V,-0.072 ± 0.066
15,E9F,-0.259 ± 0.072
16,E9G,-0.274 ± 0.056
17,E9C,0.065 ± 0.11
18,E9P,-0.25 ± 0.1
19,E9V,-0.189 ± 0.061
20,E9W,-0.495 ± 0.15
21,S15W,-0.333 ± 0.1
